# Laboratory results as given in IntAct's records for PubMed 30354839.
# B1: RNA-binding protein FUS (Homo sapiens), P35637 (parent)
# chain: MASNDYTQQATQSYGAYPTQPGQGYSQQSSQPYGQQSYSGYSQSTDTSGYGQSSYSSYGQSQNTGYGTQSTPQGYGSTGGYGSSQSSQSSYGQQSSYPGYGQQPAPSSTSGSYGSSSQSSSYGQPQSGSYSQQPSYGGQQQSYGQQQSYNPPQGYGQQNQYNSSSGGGGGGGGGGNYGQDQSSMSSGGGSGGGYGNQDQSGGGGSGGYGQQDRGGRGRGGSGGGGGGGGGGYNRSSGGYEPRGRGGGRGGRGGMGGSDRGGFNKFGGPRDQGSRHDSEQDNSDNNTIFVQGLGENVTIESVADYFKQIGIIKTNKKTGQPMINLYTDRETGKLKGEATVSFDDPPSAKAAIDWFDGKEFSGNPIKVSFATRRADFNRGGGNGRGGRGRGGPMGRGGYGGGGSGGGGRGGFPSGGGGGGGQQRAGDWKCPNPTCENMNFSWRNECNQCKAPKPDGPGGGPGGSHMGGNYGDDRRGGRGGYDRGGYRGRGGDRGGFRGGRGGGDRGGFGPGKMDSRGEHRQDRRERPY
# B2: RNA-binding protein Raly (Homo sapiens), Q9UKM9 (parent)
# chain: MSLKLQASNVTNKNDPKSINSRVFIGNLNTALVKKSDVETIFSKYGRVAGCSVHKGYAFVQYSNERHARAAVLGENGRVLAGQTLDINMAGEPKPDRPKGLKRAASAIYSGYIFDYDYYRDDFYDRLFDYRGRLSPVPVPRAVPVKRPRVTVPLVRRVKTNVPVKLFARSTAVTTSSAKIKLKSSELQAIKTELTQIKSNIDALLSRLEQIAAEQKANPDGKKKGDGGGAGGGGGGGGSGGGGSGGGGGGGSSRPPAPQENTTSEAGLPQGEARTRDDGDEEGLLTHSEEELEHSQDTDADDGALQ
# Tests used:
# [1] = variants of: B1; conditions: with raly_mouse Raly
# [2] = variants of: B1; conditions: with raly_human RALY
# [3] = variants of: B2; conditions: with fus_human FUS
Variant,effect of a mutation on the interaction [1],effect of a mutation on the interaction [2],effect of a mutation on the interaction [3]
MASNDYTQQATQSYGAYPTQPGQGYSQQSSQPYGQQSYSGYSQSTDTSGYGQSSYSSYGQSQNTGYGTQSTPQGYGSTGGYGSSQSSQSSYGQQSSYPGYGQQPAPSSTSGSYGSSSQSSSYGQPQSGSYSQQPSYGGQQQSYGQQQSYNPPQGYGQQNQYNSSSGGGGGGGGGGNYGQDQSSMSSGGGSGGGYGNQDQSGGGGSGGYGQQDRGGRGRGGSGGGGGGGGGGYNRSSGGYEPRGRGGGRGGRGGMGGSDRGGFNKFGGPRDQGSRHDSEQDNSDNNTIFVQGLGENVTIESVADYFKQIGIIKTNKKTGQPMINLYTDRETGKLKGEATVSFDDPPSAKAAIDWFDGKEFSGNPIKVSFATRRADFNRGGGNGRGGRGRGGPMGRGGYGGGGSGGGGRGGFPSGGGGGGGQQRAGDWKCPNPTCENMNFSWRNECNQCKAPKPDGPGGGPGGSHMGGNYGDDRRGGRGGYDRGGYRGRGGDRGGFRGGRGGGDRGGFGPGKMDSRGEHRQDRRERLY [P525L],with no effect,with no effect,
MASNDYTQQATQSYGAYPTQPGQGYSQQSSQPYGQQSYSGYSQSTDTSGYGQSSYSSYGQSQNTGYGTQSTPQGYGSTGGYGSSQSSQSSYGQQSSYPGYGQQPAPSSTSGSYGSSSQSSSYGQPQSGSYSQQPSYGGQQQSYGQQQSYNPPQGYGQQNQYNSSSGGGGGGGGGGNYGQDQSSMSSGGGSGGGYGNQDQSGGGGSGGYGQQDRGGRGRGGSGGGGGGGGGGYNRSSGGYEPRGRGGGRGGRGGMGGSDRGGFNKFGGPRDQGSRHDSEQDNSDNNTIFVQGLGENVTIESVADYFKQIGIIKTNKKTGQPMINLYTDRETGKLKGEATVSFDDPPSAKAAIDWFDGKEFSGNPIKVSFATRRADFNRGGGNGRGGRGRGGPMGRGGYGGGGSGGGGRGGFPSGGGGGGGQQRAGDWKCPNPTCENMNFSWRNECNQCKAPKPDGPGGGPGGSHMGGNYGDDRRGGRGGYDRGGYRGRGGDRGGFRGGRGGGDRGGFGPGKMDSRGEHRQDCRERPY [R521C],with no effect,with no effect,
MASNDYTQQATQSYGAYPTQPGQGYSQQSSQPYGQQSYSGYSQSTDTSGYGQSSYSSYGQSQNTGYGTQSTPQGYGSTGGYGSSQSSQSSYGQQSSYPGYGQQPAPSSTSGSYGSSSQSSSYGQPQSGSYSQQPSYGGQQQSYGQQQSYNPPQGYGQQNQYNSSSGGGGGGGGGGNYGQDQSSMSSGGGSGGGYGNQDQSGGGGSGGYGQQDRGGRGRGGSGGGGGGGGGGYNRSSGGYEPRGRGGGRGGRGGMGGSDRGGFNKFGGPRDQGSRHDSEQDNSDNNTIFVQGLGENVTIESVADYFKQIGIIKTNKKTGQPMINLYTDRETGKLKGEATVSFDDPPSAKAAIDWFDGKEFSGNPIKVSFATRRADFNRGGGNGRGGRGRGGPMGRGGYGGGGSGGGGRGGFPSGGGGGGGQQRAGDWKCPNPTCENMNFSWRNECNQCKAPKPDGPGGGPGGSHMGGNYGDDRRGGRGGYDRGGYRGRGGDRGGFRGGRGGGDRGGFGPGKMDSRGEHRQDHRERPY [R521H],with no effect,with no effect,
P148A;R149A,,,with no effect
